Test results from doi:10.1101/2025.08.11.669663 (bioRxiv, 2025).

B1: PRIM2 (a DNA primase subunit) (natural protein, human (endogenous in HeLa), UniProt P49643 1-509, looked up)
chain: MEFSGRKWRKLRLAGDQRNASYPHCLQFYLQPPSENISLIEFENLAIDRVKLLKSVENLGVSYVKGTEQYQSKLESELRKLKFSYRENLEDEYEPRRRDHISHFILRLAYCQSEELRRWFIQQEMDLLRFRFSILPKDKIQDFLKDSQLQFEAISDEEKTLREQEIVASSPSLSGLKLGFESIYKIPFADALDLFRGRKVYLEDGFAYVPLKDIVAIILNEFRAKLSKALALTARSLPAVQSDERLQPLLNHLSHSYTGQDYSTQGNVGKISLDQIDLLSTKSFPPCMRQLHKALRENHHLRHGGRMQYGLFLKGIGLTLEQALQFWKQEFIKGKMDPDKFDKGYSYNIRHSFGKEGKRTDYTPFSCLKIILSNPPSQGDYHGCPFRHSDPELLKQKLQSYKISPGGISQILDLVKGTHYQVACQKYFEMIHNVDDCGFSLNHPNQFFCESQRILNGGKDIKKEPIQPETPQPKPSVQKTKDASSALASLNSSLEMDMEGLEDYFSEDS
B2: glyceraldehyde-3-phosphate dehydrogenase (GAPDH) (natural protein)
chain: not shown
B3: catalase (CAT) (natural protein, human (endogenous in HeLa), UniProt P04040 1-527, looked up)
chain: MADSRDPASDQMQHWKEQRAAQKADVLTTGAGNPVGDKLNVITVGPRGPLLVQDVVFTDEMAHFDRERIPERVVHAKGAGAFGYFEVTHDITKYSKAKVFEHIGKKTPIAVRFSTVAGESGSADTVRDPRGFAVKFYTEDGNWDLVGNNTPIFFIRDPILFPSFIHSQKRNPQTHLKDPDMVWDFWSLRPESLHQVSFLFSDRGIPDGHRHMNGYGSHTFKLVNANGEAVYCKFHYKTDQGIKNLSVEDAARLSQEDPDYGIRDLFNAIATGKYPSWTFYIQVMTFNQAETFPFNPFDLTKVWPHKDYPLIPVGKLVLNRNPVNYFAEVEQIAFDPSNMPPGIEASPDKMLQGRLFAYPDTHRHRLGPNYLHIPVNCPYRARVANYQRDGPMCMQDNQGGAPNYYPNSFGAPEQQPSALEHSIQYSGEVRRFNTANDDNVTQVRAFYVNVLNEEQRKRLCENIAGHLKDAQIFIQKKAVKNFTEVHPDYGSHIQALLDKYNAEKPKNAIHTFVQSGSHLAAREKANL
B4: peroxiredoxin 2 (PRDX2) (natural protein, human (endogenous in HeLa), UniProt P32119 1-198, looked up)
chain: MASGNARIGKPAPDFKATAVVDGAFKEVKLSDYKGKYVVLFFYPLDFTFVCPTEIIAFSNRAEDFRKLGCEVLGVSVDSQFTHLAWINTPRKEGGLGPLNIPLLADVTRRLSEDYGVLKTDEGIAYRGLFIIDGKGVLRQITVNDLPVGRSVDEALRLVQAFQYTDEHGEVCPAGWKPGSDTIKPNVDDSKEYFSKHN
B5: POLD1 (a DNA polymerase subunit) (natural protein, human (endogenous in HeLa), UniProt P28340 1-1107, looked up)
chain: MDGKRRPGPGPGVPPKRARGGLWDDDDAPRPSQFEEDLALMEEMEAEHRLQEQEEEELQSVLEGVADGQVPPSAIDPRWLRPTPPALDPQTEPLIFQQLEIDHYVGPAQPVPGGPPPSRGSVPVLRAFGVTDEGFSVCCHIHGFAPYFYTPAPPGFGPEHMGDLQRELNLAISRDSRGGRELTGPAVLAVELCSRESMFGYHGHGPSPFLRITVALPRLVAPARRLLEQGIRVAGLGTPSFAPYEANVDFEIRFMVDTDIVGCNWLELPAGKYALRLKEKATQCQLEADVLWSDVVSHPPEGPWQRIAPLRVLSFDIECAGRKGIFPEPERDPVIQICSLGLRWGEPEPFLRLALTLRPCAPILGAKVQSYEKEEDLLQAWSTFIRIMDPDVITGYNIQNFDLPYLISRAQTLKVQTFPFLGRVAGLCSNIRDSSFQSKQTGRRDTKVVSMVGRVQMDMLQVLLREYKLRSYTLNAVSFHFLGEQKEDVQHSIITDLQNGNDQTRRRLAVYCLKDAYLPLRLLERLMVLVNAVEMARVTGVPLSYLLSRGQQVKVVSQLLRQAMHEGLLMPVVKSEGGEDYTGATVIEPLKGYYDVPIATLDFSSLYPSIMMAHNLCYTTLLRPGTAQKLGLTEDQFIRTPTGDEFVKTSVRKGLLPQILENLLSARKRAKAELAKETDPLRRQVLDGRQLALKVSANSVYGFTGAQVGKLPCLEISQSVTGFGRQMIEKTKQLVESKYTVENGYSTSAKVVYGDTDSVMCRFGVSSVAEAMALGREAADWVSGHFPSPIRLEFEKVYFPYLLISKKRYAGLLFSSRPDAHDRMDCKGLEAVRRDNCPLVANLVTASLRRLLIDRDPEGAVAHAQDVISDLLCNRIDISQLVITKELTRAASDYAGKQAHVELAERMRKRDPGSAPSLGDRVPYVIISAAKGVAAYMKSEDPLFVLEHSLPIDTQYYLEQQLAKPLLRIFEPILGEGRAEAVLLRGDHTRCKTVLTGKVGGLLAFAKRRNCCIGCRTVLSHQGAVCEFCQPRESELYQKEVSHLNALEERFSRLWTQCQRCQGSLHEDVICTSRDCPIFYMRKKVRKDLEDQEQLLRRFGPPGPEAW

Columns and labels:
catalase (CAT) = biological target: B3; assay: co-IP
[1] = biological target: Cu/Zn superoxide dismutase (SOD1) (human (endogenous in HeLa), UniProt P00441 1-154); assay: co-IP
Chain of Cu/Zn superoxide dismutase (SOD1) (P00441 whole entry): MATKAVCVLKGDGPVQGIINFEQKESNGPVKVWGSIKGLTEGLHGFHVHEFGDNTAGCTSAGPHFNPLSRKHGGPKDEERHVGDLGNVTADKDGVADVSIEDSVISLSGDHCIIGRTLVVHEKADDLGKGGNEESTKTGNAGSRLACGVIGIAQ

| co-precipitated amount after H2O2 treatment, percent of that without H2O2 (catalase (CAT)) [%] | co-precipitated amount after H2O2 treatment, percent of control [1] [%] | also measured | Binder |
| --- | --- | --- | --- |
| 175 |  | co-precipitated amount after H2O2 treatment, percent of that without H2O2 [1]: 130% | B1 |
|  | 180 |  | B2 |
|  | 170 |  | B3 |
|  |  | co-precipitated amount after H2O2 treatment, percent of control (catalase (CAT)): 139% | B4 |
| 190 |  |  | B5 |
